Data published in the nanobody polyreactivity screen of Harvey et al. (2022).

Test: yeast display, Sf9 membrane polyspecificity reagent, FACS + sequencing; frameworks hold sequencing errors
In short: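 A synthetic nanobody library was expressed on Saccharomyces cerevisiae BJ5465 by galactose induction for 36–48 hours. The library was stained for 1 hour at 4 °C with 10% biotinylated, detergent-solubilized Sf9 membrane reagent and enriched with streptavidin microbeads before FACS. Low and high (top ~1%) gates were set on anti-HA fluorescence for expression and streptavidin fluorescence for reagent binding, and each polyreactivity label reflects the gate of origin.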

| Sequence | polyreactivity (PSR sort gate) |
| --- | --- |
| QVQLVESGGGLVQAGGSLRLTCAASGLIFYAYAMGWYRPAPWKERELVAAITSGGDTNYADSVKGRFTISRDNAKNTVYLQMNSLKPEDTAVYYCNADPPVFQSVYWRWYHNYDYWGQGTQVTLSS | low polyreactivity |
| QVQLVESGGGLVQAGGSLRLTCAASGLIFYDNMGWYRQEPGKQRELVAAITVSGGATYYADSVKGRFTISRDNAKNTVYLQMNSLKTEDTAVFYCARELLSPTYQRWYYYWGQGTQVTVSS | low polyreactivity |
| QVQLVESGGGLVQAGGSLRLTCAASGLTFSYNAMGWYRQAPGKERELVAAITVSGGRTYYADSVKGRFTISRDNAKNTVYLQMNSLKPEDTAVYYCNADYDEGYYGYLRYDYDYWGQGTQVTVSS | high polyreactivity |
| QVQLVESGGGLVQAGGSLRLTCAASGNIFSTYAMGWYRQAPGKERELVASISENGGSTYYADSVKGRFSISRDNAKTTVYLQMNSLKPEHTAVYYCNKDYYYPNSWPKYVYWGQGTQVTLSS | low polyreactivity |
| QVQLVESGGGLVQAGGSLRLTCAASGNTFYQYAMGWYRQATGKERELVAAISSSGGSTYYADSVKGRFTISRDNAKNTVYLQMNSLKPEDTAVYYCATDKWYGYYYWGQGTQVTVSS | low polyreactivity |
| QVQLVESGGGLVQAGGSLRLTCAASGRIFGKYAKGRYRQAAGKEREFVATITRGGGTTSYADSVKGRFTNSRDNAMNTVYLQMNSLKPVDTAVYYCATRYFRGSYRNGDYWGQGTQVTVSS | high polyreactivity |
| QVQLVESGGGLVQAGGSLRLTCAASGRIFIGYAMGWYRQAPGKERELVAAISRNGDNTYYADSVKGRFTISRDNAKNTVYLQMISLKPEDSAVYYCAAVAYPRQWKLSYEDGSWGYDYWGQGTQVTVSS | low polyreactivity |
| QVQLVESGGGLVQAGGSLRLTCAASGRIFLYYTMGWYRQAPGKERELVAAITRSGGSTYYADSVKGRFTISRDNAKNTVYLQMNSLKPEDTAVYYCKRAYVRYVPMNYWGQGTQVTLSS | high polyreactivity |
| QVQLVESGGGLVQAGGSLRLTCAASGRIFPYMGWYRQAPGKERELVAAISSRGGNTYYADSVKGRFTISRDNAKNTVYLQMNSLKPEDTAVYYCNKVKYTWYDWGQGTQVTVSS | high polyreactivity |
| QVQLVESGGGLVQAGGSLRLTCAASGRIFTRYAMGWYRQAPGKERELVAAINYRGSSTYYADSVKGRFTISRDNAKNTVYLQMNSLKPEDTAVYYCNTYGQTDTYWRYYYWGQGTQVTVSS | high polyreactivity |
| QVQLVESGGGLVQAGGSLRLTCAASGRIFTRYMGWYRQAPGKERELVATINWSGGSTYYADSVKGRFTISRDNEKNTFYLQMNSLKPEDTAVYYCNARNVHFYYVQYNGAKIFDYWGQGTQVTVSS | low polyreactivity |
| QVQLVESGGGLVQAGGSLRLTCAASGRIFWGNAMGWYRQAPGKERDLVAAITSCDGTNYADSVKGRFTISRDNAKNTVYLQMNSLKPEDTAVYYCAARKYYYLQYTPRYDYWGQGTQVTVSS | low polyreactivity |
| QVQLVESGGGLVQAGGSLRLTCAASGRIFYDKSMGWYRQSPGKERELVAAIRRSGGDTYYADSVKGRFTISRDIAKNTVYLQMNSLKTVDTAVYYCADTYSDYGRRYGYWGQGTLVTVSS | high polyreactivity |
| QVQLVESGGGLVQAGGSLRLTCAASGRIFYGNALGWYRQAPGKERELVAAISSGGGSTYYADSVKGRFTISRDNAKNTVYLQLNSLKPEDTAVYYCAADPVHRFPGTGGFWGKGTQVTVSS | low polyreactivity |
| QVQLVESGGGLVQAGGSLRLTCAASGRIFYLNAMGWYRQAPGKERELVAGLTNSTTGTYYADSVKGRFTISRDNAKNTVDLQMNSLKPEDTAVYYCNSDVAYEEPVETYDYWGQGTQVTVSS | low polyreactivity |
| QVQLVESGGGLVQAGGSLRLTCAASGRNFDYNARGWYRQAPGKEREFVAPISGRGGSTYYADSVKGRFTISRDNAKNRVYLQMNSLKPEDTAVYYCAADWRYRYSGRYDYWGQGTQVTVSS | high polyreactivity |
| QVQLVESGGGLVQAGGSLRLTCAASGRNFRAYAMGWYRQAPGKERELVAAISTSGGSTRYADSVKGRFTISRDNAKNTVYLQMNSLKPEDTAVYYCARYTTRTYEYNYWGQGTQVTVSS | high polyreactivity |
| QVQLVESGGGLVQAGGSLRLTCAASGRTFAGNAMGWYRQAPGKERELVAAIRRTGGRTYYADSVKGRFTISRDNAKNSVYLQRNSLKPEDTAVYYCYAVNKPYTREYGYDYWGKGTQVTVSS | high polyreactivity |
| QVQLVESGGGLVQAGGSLRLTCAASGRTFALYAMGWYRQAPGKERELVAGITGRGGTTHYADSVKGRFTISRDYAKNTVYLQMNSLKPEDTAVYYCATTQSWRVPYRRLGYWGQGTQVTVSS | low polyreactivity |
| QVQLVESGGGLVQAGGSLRLTCAASGRTFDQYAMGWYRQAPGKERDLVAAITSGGSTYYADSVKGRFTISRDNAKNTVYLQMNSLKPEDTAVYYCYTDSSFWGYYIAQVNERDYWGQGTQVTVSS | low polyreactivity |
| QVQLVESGGGLVQAGGSLRLTCAASGRTFGLNTMGWYRQAPGKERELVAAISRRGGSTYYADSVKGRFTISRDNAKNTVYLQMNSLKPEDTAVYYCARTSYNRYDYWGQGTQVTVSS | high polyreactivity |
| QVQLVESGGGLVQAGGSLRLTCAASGRTFHGNAMGWYRPAPGKERELVAAISYSGGRTYYADSVKGRFTISRDNAKNTVYLQMNSLKPEDTAVYYCAAWGSSYSFDYWGQGTQVTVSS | high polyreactivity |

| Sequence | polyreactivity (PSR sort gate) |
| --- | --- |
| QVQLVESGGGLVQAGGSLRLTCAASGRTFKYYAMGWYRQAPGKERELVAAITRSGGNTYYADSVKGRFTISRDNAKNTVYLQMNSLKPEDTAVYYCAKRLGYRYPTYDYWGQGTQVSVSS | high polyreactivity |
| QVQLVESGGGLVQAGGSLRLTCAASGRTFRIYAMGWYRQAPAKERELVAAIRWSGGTTYYADSVKGRFTISRDNTNNSVYLQMNSLKPEDTAVYYCNKARLGWSYRQDDYWGQGTQVTVSS | high polyreactivity |
| QVQLVESGGGLVQAGGSLRLTCAASGRTFRYYVMGWYRQAPGKERELVASITSDATYYADSVKGRFTISRDNAKNTVYLQLNSLKPEDTAVYYCAKRYPYRHRTYNPVAYDYWGQGTQVTVSS | high polyreactivity |
| QVQLVESGGGLVQAGGSLRLTCAASGRTFTLNSMGWYRQAPGKERELVAAIRRGGSTYYADSVKGRFTISRDNAKNTVYLQMNSLKPVDTAVYYCAAYKGSYGGYRMQYSYNYWGQGTQVTVSS | high polyreactivity |
| QVQLVESGGGLVQAGGSLRLTCAASGRTFTVYAMGGYRQAPGKEREFVAAITERGGSTYYADSVKGRFTISRDNAKNTVYLQMNSLKPEDTAVYYCAAVYYWRPGWYVRFDYWGQGTQVTVSS | low polyreactivity |
| QVQLVESGGGLVQAGGSLRLTCAASGRTFWYYAMGWYRQAPGKERELVAASYYSGDGTYYADSVKGRFTISRDNAKNTVYLQMTSLKPEDTALYYGAAEWSDPTLPTAWSEYEYWGQGTHVTVSS | high polyreactivity |
| QVQLVESGGGLVQAGGSLRLTCAASGRTFYIYAMGWYRPAPGKERQLVAAITYGGGRTFYADSVKGRFTISRYNAKNTVYLQMNSLKPEDTAVYYCGATVRGKRSTYDYWGQGTQVTVSS | high polyreactivity |
| QVQLVESGGGLVQAGGSLRLTCAASGRTFYVNAMGWYRQAPGKEREFVAAISRRGGSTYYADSVKGRFTISRDNAKNTVYLQMNCLKPEDTAVYYCNAAYSSRYDYWGQGTQVTVSS | high polyreactivity |
| QVQLVESGGGLVQAGGSLRLTCAASGSIFDYYAMGWYRQAHGKERELVAAISDSGSTYYADSVKGRFTISRDNAKNTVYVQMNSLKAEDTAVYYCAAVLWSPYRSEPLDTYEYWGQGTQVTVSS | low polyreactivity |
| QVQLVESGGGLVQAGGSLRLTCAASGSIFGPNTMGWYRQAPGKERELVAAIRCGGSTNYADSVKWRFTISRDNAKNTVYLQMNSLKPDDTAVYYCIATWNLFPGVLDRYVYWGQGTQVTVSS | low polyreactivity |
| QVQLVESGGGLVQAGGSLRLTCAASGSIFHGNDMGWYRQAPGKETELVATISSGGSTYYADSVKGRFTSSRDNAKTTVYLQMNSLKPEDTAVYYCAAERFWPYKSYYWGQGTQVTVSS | low polyreactivity |
| QVQLVESGGGLVQAGGSLRLTCAASGSIFPDNAMAWYRQAPGNERELVAAITSSGGSTYYADSVKGRLRISRDNAKNTVYLQMNSLKPADSAVYYCAKGRSYSVAKRRLYKYWGQGTEVTVSS | high polyreactivity |
| QVQLVESGGGLVQAGGSLRLTCAASGSIFRINAMGWYRQEPGKEREFVAVITSRTGNTYYADSVKGRFTISRDNAKNTVYLQMNSLKPEDTAVYYCAADYPPARWEMEYWGQGTQVTVSS | low polyreactivity |
| QVQLVESGGGLVQAGGSLRLTCAASGSIFRYYAMGWYRQAPGKERELVAAISSNGGSTYYADSVKGRFTISRDNAKNTVYLQMNSLKPEDTAVYYCAALFRRAPGYYWGQGTQVTVSS | high polyreactivity |
| QVQLVESGGGLVQAGGSLRLTCAASGSIFSRYAMGWYRQAPGKERELVAAISQRAGSTYYADSVKGRFTISRDNAKNTVYLQMNSLKPEDTAVYYCAARRRGRKERGEDYWGQGTQVTVSS | high polyreactivity |
| QVQLVESGGGLVQAGGSLRLTCAASGSIFTGYAMRCYRQAPGTERELVAAIRTRGGSPYYADSVKGRFTISRDNAKNTVYLQMNSLKPEDTALYYCAKRYYGWYGNFDYWGQGTQVTVSS | high polyreactivity |
| QVQLVESGGGLVQAGGSLRLTCAASGSIFYRNAMGWYRQAPGKERELVAAISTDGSTNYADSVKGRFTISRDNAKNTVYLHMNSLIPEDTAVSYCAAPWTQILDYWGQGTQVTVSS | low polyreactivity |
| QVQLVESGGGLVQAGGSLRLTCAASGSIIKRNAMGWYRQAPGKERELVASISSGGSTKYADSVKGRFTISRDNAKTTVYLQMNSLKPEDTAVYYCPKRSSQTRRAYDYWGQGTQVTVSS | low polyreactivity |
| QVQLVESGGGLVQAGGSLRLTCAASGSILYTYAMGWYRQAPGKERELVAAISRGGGSTYYADSVKGRFTISRDNAKNTVYLQMNSLKPEDTAVYYCAARKLTRGTGRDDEYWGQGTQVTVSS | high polyreactivity |
| QVQLVESGGGLVQAGGSLRLTCAASGSTFAWYAMGWYRQAPGKERELVAAISRTGRTYYADSVKGRFTISRDNAKNTVYLQMNSLKPEDTAVYYCAARIERFYRDQRYDYWGQGTQVTVSS | high polyreactivity |
| QVQLVESGGGLVQAGGSLRLTCAASGSTFDLNAMGWYRQSPGKERELVARISSVGSTNYADSVKGRFTISRDNAKNSVYLQMNSLKPEDTAVYYCNAGFWDLYDYWGQGTQVTVSS | low polyreactivity |
